The results in this text go back to the supplement of paper PMC10567573.

This data set can be described thus: protein stability index of a GFP-peptide fusion (GPS, HEK-293T) (PSI 1-6); higher = more stable. Particulars: c terminus: a fixed tail appended.

± gives the standard deviation.
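Further: 24-mer peptide tiles fused after GFP, lentivirally expressed, FACS-sorted into six equal bins by GFP/DsRed ratio, decoded by Illumina sequencing, PSI is the read-weighted mean bin number.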

As for LSDSGAFRRSLHDPDGLVATYISE [APMAP], the protein stability index runs as follows: (treatment: DMSO) 4.12 ± 0.2; (treatment: MLN4924 1 uM, 8 h) 4.02 ± 0.23.

As to LSGVSCFVMFLCLADYLVPILAPR [ARL6IP1], the protein stability index reads like this: (treatment: DMSO) 3.5 ± 0.071; (treatment: MLN4924 1 uM, 8 h) 3.37 ± 0.44.

For LSGVSQLLPKSRENYLNRCMDQER [FCHO1], the protein stability index came out at 3.78 ± 0.21 (treatment: DMSO) and 3.95 ± 0.14 (treatment: MLN4924 1 uM, 8 h).

As to LSLFVQKLGNLMSLDISGHMILEN [ZER1], the protein stability index is 3.24 ± 0.06 (treatment: DMSO) and 3.42 ± 0.48 (treatment: MLN4924 1 uM, 8 h).

Turning to LTEDMYAQDSIELLTTSGIQFKKH [CNOT7], the protein stability index is, setting by setting: (treatment: DMSO) 3.93 ± 0.23; (treatment: MLN4924 1 uM, 8 h) 4.09 ± 0.32.

As for LTGTESPFDLEQQWQDLMSIMEMQ [NFE2L1], the protein stability index by setting is: (treatment: DMSO) 3.95 ± 0.23; (treatment: MLN4924 1 uM, 8 h) 3.88 ± 0.47.

With LTPHIVQYQANKVTHTLTMRQRIS [PPEF2], the protein stability index runs as follows: (treatment: DMSO) 2.89 ± 0.28; (treatment: MLN4924 1 uM, 8 h) 3 ± 0.17.

Consider LTQLHRLSLESSPDAPDHTSETSH [PLEKHN1], for which the protein stability index (treatment: DMSO) amounted to 5.23 ± 0.32 and the protein stability index (treatment: MLN4924 1 uM, 8 h) came out at 5.22 ± 0.21.

For LTTKDYMEMYNVIMTVKEDQFSAL [SLC6A17], the protein stability index came out at 2.37 ± 0.39 (treatment: DMSO) and 2.38 ± 0.29 (treatment: MLN4924 1 uM, 8 h).

LTVAKCWDPSPRGCFTLPRSEPIR [DVL3]: the protein stability index by setting is: (treatment: DMSO) 2.43 ± 0.37; (treatment: MLN4924 1 uM, 8 h) 2.62 ± 0.23.

Regarding LVEAVLSGEVLNGAAVVRPPGHHA [HDAC6], the protein stability index worked out at 2.27 ± 0.2 (treatment: DMSO) and 2.27 ± 0.34 (treatment: MLN4924 1 uM, 8 h).

Turning to LVGDRDVGKSEILESLQDGAAESP [RAB40A], the protein stability index reads like this: (treatment: DMSO) 5.57 ± 0.17; (treatment: MLN4924 1 uM, 8 h) 5.48 ± 0.21.

With LVHHRAAHSNEILIFSVQPKSLVR [KLHDC2], the protein stability index reads like this: (treatment: DMSO) 2.45 ± 0.31; (treatment: MLN4924 1 uM, 8 h) 2.21 ± 0.24.

With LVLLRDGRTLIGFLRSIDQFANLV [LSM1], the protein stability index reads like this: (treatment: DMSO) 2.23 ± 0.52; (treatment: MLN4924 1 uM, 8 h) 2.47 ± 0.47.

Consider LVQDLVDSLKFAVLMWLLTYVGAL [RTN1], for which the protein stability index (treatment: DMSO) worked out at 2.94 ± 0.2 and the protein stability index (treatment: MLN4924 1 uM, 8 h) came to 2.85 ± 0.26.

With LVRGHRRRLLRRLSPSRGVAQCLR [ZSWIM9], the protein stability index is, setting by setting: (treatment: DMSO) 3.2 ± 0.23; (treatment: MLN4924 1 uM, 8 h) 3.41 ± 0.25.

For LVTGGELFEDIVAREYYSEADASH [CAMK2A], the protein stability index runs as follows: (treatment: DMSO) 3.92 ± 0.37; (treatment: MLN4924 1 uM, 8 h) 3.91 ± 0.17.

LWVEERALLEGEKALWEDKTSLWE [CCDC70]: the protein stability index is, setting by setting: (treatment: DMSO) 2.6 ± 0.036; (treatment: MLN4924 1 uM, 8 h) 3 ± 0.11.

Regarding LYCSTPTRTAEPAESSVPPVTSIG [SLC35F2], the protein stability index runs as follows: (treatment: DMSO) 3.98 ± 0.25; (treatment: MLN4924 1 uM, 8 h) 4.08 ± 0.2.

Turning to LYRDVMLETFGHLLSIGPELPKPE [ZNF8], the protein stability index worked out at 2.26 ± 0.27 (treatment: DMSO) and 2.56 ± 0.46 (treatment: MLN4924 1 uM, 8 h).

With LYSLAPTMGAVVLSSTLLSFSTAI [MFSD9], the protein stability index runs as follows: (treatment: DMSO) 3.19 ± 0.47; (treatment: MLN4924 1 uM, 8 h) 2.96 ± 0.42.

Take MAKRIGKDLSNTFAKLEKLTILAK [STX5]: the protein stability index reads like this: (treatment: DMSO) 2.77 ± 0.69; (treatment: MLN4924 1 uM, 8 h) 2.77 ± 0.53.

MAMVVSTWRDPQDEVPGSQGSQAS [NR2F2]: the protein stability index (treatment: DMSO) was found to be 4.05 ± 0.27 and the protein stability index (treatment: MLN4924 1 uM, 8 h) worked out at 4.32 ± 0.25.

MDEEKLKQLNCVEISALNGNRINV [DLC1] returned a protein stability index (treatment: DMSO) of 3.6 ± 0.34 and a protein stability index (treatment: MLN4924 1 uM, 8 h) of 3.67 ± 0.3.

With MEDGSLDITQSIEDDPLLDAQLLP [TMEM192], the protein stability index by setting is: (treatment: DMSO) 5.28 ± 0.24; (treatment: MLN4924 1 uM, 8 h) 5.18 ± 0.16.

Regarding MEEAAVASVVLPARELQEALPEAP [BCL2L13], the protein stability index by setting is: (treatment: DMSO) 5.27 ± 0.15; (treatment: MLN4924 1 uM, 8 h) 5.51 ± 0.069.

MENKAMYLHTVSDCDTSSICEDSF [SCARA5]: the protein stability index was 4.46 ± 0.17 (treatment: DMSO) and 4.49 ± 0.22 (treatment: MLN4924 1 uM, 8 h).

Consider MERLRELQRASILDMRRDHEEQLQ [FBF1], for which the protein stability index (treatment: DMSO) was 4.28 ± 0.28 and the protein stability index (treatment: MLN4924 1 uM, 8 h) was determined as 4.42 ± 0.29.

For MFPVAPKPQDSSQPSDRLMTEKQQ [CEP70], the protein stability index came out at 5.28 ± 0.2 (treatment: DMSO) and 5.24 ± 0.11 (treatment: MLN4924 1 uM, 8 h).

In the case of MGANTSRKPPVFDENEDVNFDHFE [STK32A], the protein stability index by setting is: (treatment: DMSO) 5.11 ± 0.26; (treatment: MLN4924 1 uM, 8 h) 5.134 ± 0.042.

Turning to MGATRCDFTLSKTNMARIREIMEK [CPXM2], the protein stability index runs as follows: (treatment: DMSO) 2.96 ± 0.088; (treatment: MLN4924 1 uM, 8 h) 3.3 ± 0.31.

Turning to MKQRDNCKIRIQRQLEIMGKEVSG [STX11], the protein stability index by setting is: (treatment: DMSO) 3.27 ± 0.18; (treatment: MLN4924 1 uM, 8 h) 3.39 ± 0.33.

Take MLDFLSERPWIKRMIFKLFSQETV [APMAP]: the protein stability index is 1.98 ± 0.3 (treatment: DMSO) and 1.82 ± 0.26 (treatment: MLN4924 1 uM, 8 h).

Take MNSLVSWQLLLFLCATHFGEPLEK [KISS1]: the protein stability index was found to be 3.18 ± 0.67 (treatment: DMSO) and 3.07 ± 0.51 (treatment: MLN4924 1 uM, 8 h).

On to MPVICGPEENYPSLQMSSAEMPHT [NANOGP8], for which the protein stability index reads like this: (treatment: DMSO) 4.47 ± 0.32; (treatment: MLN4924 1 uM, 8 h) 4.39 ± 0.24.

In turn, MQKEDNQVDVRFFGHHHQRAWIPS [ZMYND11] came in with a protein stability index (treatment: DMSO) of 3.05 ± 0.12 and a protein stability index (treatment: MLN4924 1 uM, 8 h) of 3.18 ± 0.32.

On to MRDQYMRAGEGFIICYSITDRRSF [RIT1], for which the protein stability index turned out to be 2.37 ± 0.82 (treatment: DMSO) and 2.11 ± 0.38 (treatment: MLN4924 1 uM, 8 h).

For MREYKLVVLGSGGVGKSALTVQFV [RAP1B], the protein stability index (treatment: DMSO) was 2.51 ± 0.53 and the protein stability index (treatment: MLN4924 1 uM, 8 h) was found to be 2.8 ± 0.75.

Take MSDTAVADTRRLNSKPQDLTDAYG [SNX12]: the protein stability index is 4.96 ± 0.24 (treatment: DMSO) and 5.06 ± 0.14 (treatment: MLN4924 1 uM, 8 h).

Take MSREPTPPLPGDMSTGPIAESWCY [SPOPL]: the protein stability index by setting is: (treatment: DMSO) 3.29 ± 0.32; (treatment: MLN4924 1 uM, 8 h) 3.37 ± 0.47.

For the sequence MSSEVSARRDAKKLVRSPSGLRMV [ZFYVE21], the protein stability index is, setting by setting: (treatment: DMSO) 3.67 ± 0.091; (treatment: MLN4924 1 uM, 8 h) 3.58 ± 0.28.

For MSVSEIFVELQGFLAAEQDIREEI [TSN], the protein stability index was determined as 2.39 ± 0.42 (treatment: DMSO) and 2.72 ± 0.26 (treatment: MLN4924 1 uM, 8 h).

MTTESGSDSESKPDQEAEPQEAAG [EPB41L3]: the protein stability index runs as follows: (treatment: DMSO) 5.62 ± 0.33; (treatment: MLN4924 1 uM, 8 h) 5.56 ± 0.45.

Consider MVESRYALLIVDSATALYRTDYSG [RAD51], for which the protein stability index (treatment: DMSO) is 3 ± 0.79 and the protein stability index (treatment: MLN4924 1 uM, 8 h) amounted to 2.86 ± 0.71.

Take MVPGTRHSAVLRDLRSGTLYSLTL [TNXB]: the protein stability index came out at 2.91 ± 0.58 (treatment: DMSO) and 2.03 ± 0.52 (treatment: MLN4924 1 uM, 8 h).

In the case of MVPVENTEGPSLLNQKGTAVETEG [SLC2A12], the protein stability index (treatment: DMSO) amounted to 5.62 ± 0.19 and the protein stability index (treatment: MLN4924 1 uM, 8 h) was determined as 5.11 ± 0.3.

For the sequence NAREESLVEELSPASEKKPVPPSE [BCL2L13], the protein stability index (treatment: DMSO) came to 5.33 ± 0.27 and the protein stability index (treatment: MLN4924 1 uM, 8 h) turned out to be 5.47 ± 0.14.

Turning to NARLQAMWGQSLLPPVSTSFTTGG [TNXB], the protein stability index stood at 2.51 ± 0.29 (treatment: DMSO) and 2.89 ± 0.33 (treatment: MLN4924 1 uM, 8 h).

As to NCQSVAQMNLLQKYSLLKLTALLE [DLC1], the protein stability index is, setting by setting: (treatment: DMSO) 2.25 ± 0.36; (treatment: MLN4924 1 uM, 8 h) 2.44 ± 0.11.

Take NCSGPAPAAKPDPDGGRADEWACE [P3H4]: the protein stability index by setting is: (treatment: DMSO) 5.36 ± 0.17; (treatment: MLN4924 1 uM, 8 h) 5.44 ± 0.16.

NDFCSFYNILKTCRGHTLERSVFS [CARM1]: the protein stability index runs as follows: (treatment: DMSO) 2.78 ± 0.6; (treatment: MLN4924 1 uM, 8 h) 2.4 ± 0.3.

For the sequence NDNSSDLLYDDLYDDDIDDEDEEE [UBE2R2], the protein stability index stood at 5.61 ± 0.41 (treatment: DMSO) and 5.63 ± 0.18 (treatment: MLN4924 1 uM, 8 h).

Sequence NEKETMQSLNDRLASYLDRVRSLE [KRT18] registered a protein stability index (treatment: DMSO) of 3.61 ± 0.23 and a protein stability index (treatment: MLN4924 1 uM, 8 h) of 3.54 ± 0.28.
